Among the data in publication PMC3273594 are stoichiometry N values, retold here.

The target of test [1] is TOAC labeled wild-type PLB. Nature of the test: SDS-PAGE.
Test [2] has as its target T1, Wild-type Phospholamban, P61014.
T1 chain: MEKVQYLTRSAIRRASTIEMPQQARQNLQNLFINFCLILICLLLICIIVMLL
The experiment in a line: SDS-PAGE. As to conditions: remark: other sources report otherwise.

What is called stoichiometry N is a count of units in the complex or per binding partner.

In test [1], TOAC labeled wild-type PLB yielded a stoichiometry N of 5.

B1: Wild-type Phospholamban, P61014 1-52 (natural protein)
chain: MEKVQYLTRSAIRRASTIEMPQQARQNLQNLFINFCLILICLLLICIIVMLL
Take B1: in test [2], the stoichiometry N was found to be 5.
